The conditions of the data set: Bacillus amyloliquefaciens; pH 6.3; 25 °C; Urea; Fluorescence; MES-NaOH 450 mM; reversible: yes; whole UniProt chain shown.

B1: Ribonuclease wild type, P00648 (protein)
chain: MMKMEGIALKKRLSWISVCLLVLVSAAGMLFSTAAKTETSSHKAHTEAQVINTFDGVADYLQTYHKLPDNYITKSEAQALGWVASKGNLADVAPGKSIGGDIFSNREGKLPGKSGRTWREADINYTSGFRNSDRILYSSDWLIYKTTDHYQTFTKIR
On to B1, for which the denaturant m value is 1.93 kcal/mol/M, the “denaturant midpoint (higher = more stable)” value was 4.57 M and the unfolding free energy turned out to be 8.82 kcal/mol.

These data come from FireProtDB (doi:10.1016/0022-2836(92)90562-x).
